# Test results taken from PMC10564799.
# Values joined by “and” are separate entries in the source; they are usually repeats but may differ in a detail not shown here. Equal entries are not always repeated.
# Molecular target: SFTSV glycoprotein Gc (SFTSV (Dabie bandavirus), strain JA1-2018)
# Assay: cryo-EM structure
substance,measurement,value
SFTSV glycoprotein Gc (natural protein),stoichiometry N,5 and 6
